Values quoted from earlier work, collected in publication PMC5580235.
pKd: −log10 of the molar value. Where two headings read alike, the source gives them in different places. Values belong to the substance of their own block, whether it stands above or below them.

Assays:
ICAM-1 (Homo sapiens) [1] = biological target: ICAM-1 (Homo sapiens) (UniProt P05362)
ICAM-1 (Homo sapiens) [2] = biological target: ICAM-1 (Homo sapiens) (UniProt P05362); remark: listed apart in the source
ICAM-1 (Homo sapiens) [3] = biological target: ICAM-1 (Homo sapiens) (UniProt P05362); remark: listed apart in the source

Chain of ICAM-1 (Homo sapiens) (P05362 28-480): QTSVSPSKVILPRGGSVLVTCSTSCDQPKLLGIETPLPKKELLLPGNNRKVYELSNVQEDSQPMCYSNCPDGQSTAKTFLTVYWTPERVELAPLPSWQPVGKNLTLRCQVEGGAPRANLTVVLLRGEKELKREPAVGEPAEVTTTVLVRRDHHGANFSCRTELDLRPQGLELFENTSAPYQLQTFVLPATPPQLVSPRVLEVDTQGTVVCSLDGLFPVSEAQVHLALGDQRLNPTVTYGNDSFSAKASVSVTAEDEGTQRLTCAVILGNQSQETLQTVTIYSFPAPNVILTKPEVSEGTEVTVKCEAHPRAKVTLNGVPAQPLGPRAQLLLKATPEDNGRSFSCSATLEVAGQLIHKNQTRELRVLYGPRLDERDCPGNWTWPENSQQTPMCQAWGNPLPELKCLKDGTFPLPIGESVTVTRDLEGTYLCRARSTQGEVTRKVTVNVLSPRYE
Chain of LFA-1 (high affinity form) (P20701 26-1090): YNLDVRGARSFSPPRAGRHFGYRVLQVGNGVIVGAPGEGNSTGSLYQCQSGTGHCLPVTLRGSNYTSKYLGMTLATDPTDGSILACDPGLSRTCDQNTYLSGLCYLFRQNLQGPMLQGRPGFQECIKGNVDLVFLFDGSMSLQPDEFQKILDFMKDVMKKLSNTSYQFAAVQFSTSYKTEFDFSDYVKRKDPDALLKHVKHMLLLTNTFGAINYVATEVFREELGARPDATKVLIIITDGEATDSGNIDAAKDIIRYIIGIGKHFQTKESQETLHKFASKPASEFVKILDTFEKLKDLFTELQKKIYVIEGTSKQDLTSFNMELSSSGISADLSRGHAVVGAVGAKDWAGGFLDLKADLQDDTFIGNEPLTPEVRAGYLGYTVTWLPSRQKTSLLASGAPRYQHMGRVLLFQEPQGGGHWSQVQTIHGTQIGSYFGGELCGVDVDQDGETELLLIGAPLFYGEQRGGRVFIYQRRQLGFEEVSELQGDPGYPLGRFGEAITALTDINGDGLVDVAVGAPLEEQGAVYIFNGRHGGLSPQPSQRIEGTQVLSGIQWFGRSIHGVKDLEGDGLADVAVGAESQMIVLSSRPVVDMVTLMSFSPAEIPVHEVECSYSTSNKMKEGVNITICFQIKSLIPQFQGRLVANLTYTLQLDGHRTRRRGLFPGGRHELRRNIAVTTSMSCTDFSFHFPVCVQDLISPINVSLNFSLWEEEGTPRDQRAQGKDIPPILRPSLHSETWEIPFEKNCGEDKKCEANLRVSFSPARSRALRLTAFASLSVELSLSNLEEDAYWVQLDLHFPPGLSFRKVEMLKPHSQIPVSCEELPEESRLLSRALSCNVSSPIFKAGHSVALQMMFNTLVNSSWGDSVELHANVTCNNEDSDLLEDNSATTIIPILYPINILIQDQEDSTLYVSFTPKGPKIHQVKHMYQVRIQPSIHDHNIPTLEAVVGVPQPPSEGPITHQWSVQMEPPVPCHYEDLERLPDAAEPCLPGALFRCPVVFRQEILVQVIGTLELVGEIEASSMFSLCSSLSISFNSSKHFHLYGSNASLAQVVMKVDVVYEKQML
Chain of LFA-1 (high affinity form) (P05107 23-700, further chain): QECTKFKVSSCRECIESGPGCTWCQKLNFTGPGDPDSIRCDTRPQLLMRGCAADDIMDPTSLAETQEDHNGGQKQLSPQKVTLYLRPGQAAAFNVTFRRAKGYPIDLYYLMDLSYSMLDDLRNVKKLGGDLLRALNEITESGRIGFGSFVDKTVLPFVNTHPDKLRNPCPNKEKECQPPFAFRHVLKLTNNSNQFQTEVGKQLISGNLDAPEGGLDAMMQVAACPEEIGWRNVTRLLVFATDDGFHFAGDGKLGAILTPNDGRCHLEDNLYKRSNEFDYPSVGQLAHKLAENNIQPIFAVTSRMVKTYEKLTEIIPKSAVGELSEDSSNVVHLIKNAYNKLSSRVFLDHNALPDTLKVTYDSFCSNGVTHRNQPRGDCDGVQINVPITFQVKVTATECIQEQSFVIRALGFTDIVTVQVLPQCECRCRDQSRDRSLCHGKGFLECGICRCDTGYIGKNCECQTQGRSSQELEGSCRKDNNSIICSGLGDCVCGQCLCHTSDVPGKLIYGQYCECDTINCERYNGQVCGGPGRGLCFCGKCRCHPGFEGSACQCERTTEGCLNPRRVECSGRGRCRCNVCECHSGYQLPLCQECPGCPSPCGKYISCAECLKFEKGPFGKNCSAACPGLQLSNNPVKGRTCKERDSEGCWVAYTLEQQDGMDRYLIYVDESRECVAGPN
Chain of LFA-1 (intermediate affinity form) (P20701 26-1090): as the sequence (P20701 26-1090) above
Chain of LFA-1 (intermediate affinity form) (P05107 23-700, further chain): as the sequence (P05107 23-700, further chain) above
Chain of LFA-1 (low affinity form) (P20701 26-1090): as the sequence (P20701 26-1090) above
Chain of LFA-1 (low affinity form) (P05107 23-700, further chain): as the sequence (P05107 23-700, further chain) above

pKd (ICAM-1 (Homo sapiens) [1]): 6.82
Substance: LFA-1 (high affinity form) (from UniProt P20701)

pKd (ICAM-1 (Homo sapiens) [2]): 4.82
Substance: LFA-1 (intermediate affinity form) (from UniProt P20701)

pKd (ICAM-1 (Homo sapiens) [3]): 2.82
Substance: LFA-1 (low affinity form) (from UniProt P20701)
